Consider 125 sequences from the supplement of paper PMC9112550, “Optimization of the antimicrobial peptide Bac7 by deep mutational scanning” (BMC Biology, 2022).

The data set relates to Escherichia coli TOP10. The data set is described as follows: shrunken log2 fold change of peptide-encoding DNA abundance (4.5 h post-induction vs induction); higher = less antimicrobial activity (less host growth inhibition). Conditions: time post-induction: 4.5 h; library: site-saturation at positions 5, 18, 19, 20.
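Note: peptides expressed intracellularly from a pBAD plasmid library in pooled LB shake-flask culture, induced with 0.3% L-arabinose, DNA abundance read by NGS, three biological replicates, DESeq2 with apeglm shrinkage.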

For RRIRRRPPRLPRPRPRPFPWPRP, the “shrunken log2 fold change” value is -0.0263.

Consider RRIRPRPPRLPRPRPRPIYLPRP, for which the “shrunken log2 fold change” value was -0.379.

As for RRIRCRPPRLPRPRPRPFNFPRP, the “shrunken log2 fold change” value is -0.813.

As for RRIRHRPPRLPRPRPRPMMMPRP, the “shrunken log2 fold change” value is -0.0507.

As for RRIRSRPPRLPRPRPRPKYEPRP, the “shrunken log2 fold change” value is -0.147.

Take RRIRQRPPRLPRPRPRPGFKPRP: the “shrunken log2 fold change” value was -0.534.

As for RRIRDRPPRLPRPRPRPCILPRP, the “shrunken log2 fold change” value came out at 1.16.

For the sequence RRIRFRPPRLPRPRPRPCLMPRP, the “shrunken log2 fold change” value is -0.379.

On to RRIRWRPPRLPRPRPRPCRFPRP, for which the “shrunken log2 fold change” value is 0.0225.

Take RRIRNRPPRLPRPRPRPSQEPRP: the “shrunken log2 fold change” value amounted to 0.299.

For the sequence RRIRCRPPRLPRPRPRPDSEPRP, the “shrunken log2 fold change” value was determined as 0.0197.

On to RRIRLRPPRLPRPRPRPNMGPRP, for which the “shrunken log2 fold change” value was -0.25.

RRIRLRPPRLPRPRPRPTDIPRP: the “shrunken log2 fold change” value was -0.0682.

Regarding RRIRCRPPRLPRPRPRPWLDPRP, the “shrunken log2 fold change” value is -0.273.

Turning to RRIRSRPPRLPRPRPRPLYQPRP, the “shrunken log2 fold change” value was -0.339.

In the case of RRIRWRPPRLPRPRPRPMGHPRP, the “shrunken log2 fold change” value was -0.116.

In the case of RRIRVRPPRLPRPRPRPVNKPRP, the “shrunken log2 fold change” value is -0.186.

As to RRIRCRPPRLPRPRPRPCSAPRP, the “shrunken log2 fold change” value is -0.277.

Take RRIRTRPPRLPRPRPRPSAYPRP: the “shrunken log2 fold change” value was -0.144.

As for RRIRDRPPRLPRPRPRPDNHPRP, the “shrunken log2 fold change” value is -0.107.

Turning to RRIRKRPPRLPRPRPRPLIRPRP, the “shrunken log2 fold change” value is -0.0949.

In the case of RRIRGRPPRLPRPRPRPPRLPRP, the “shrunken log2 fold change” value came to 0.702.

Turning to RRIRSRPPRLPRPRPRPIQNPRP, the “shrunken log2 fold change” value was -0.119.

With RRIRNRPPRLPRPRPRPPMFPRP, the “shrunken log2 fold change” value was -0.0155.

Take RRIRSRPPRLPRPRPRPKNSPRP: the “shrunken log2 fold change” value was -0.431.

Regarding RRIRKRPPRLPRPRPRPDENPRP, the “shrunken log2 fold change” value amounted to 1.42.

As to RRIRLRPPRLPRPRPRPLPHPRP, the “shrunken log2 fold change” value is -0.309.

RRIRLRPPRLPRPRPRPANVPRP: the “shrunken log2 fold change” value was -0.304.

For the sequence RRIRNRPPRLPRPRPRPEAQPRP, the “shrunken log2 fold change” value is -0.0169.

For RRIRARPPRLPRPRPRPWCPPRP, the “shrunken log2 fold change” value is -0.169.

On to RRIRNRPPRLPRPRPRPSGSPRP, for which the “shrunken log2 fold change” value is -0.0937.

For the sequence RRIRERPPRLPRPRPRPDWYPRP, the “shrunken log2 fold change” value is -0.297.

RRIRIRPPRLPRPRPRPYCSPRP: the “shrunken log2 fold change” value was -0.0144.

For RRIRSRPPRLPRPRPRPKVEPRP, the “shrunken log2 fold change” value was found to be 0.213.

Consider RRIRRRPPRLPRPRPRPVDPPRP, for which the “shrunken log2 fold change” value was 0.253.

In the case of RRIRVRPPRLPRPRPRPQLEPRP, the “shrunken log2 fold change” value stood at 0.144.

For RRIRYRPPRLPRPRPRPYVKPRP, the “shrunken log2 fold change” value was -1.12.

Regarding RRIRFRPPRLPRPRPRPQFIPRP, the “shrunken log2 fold change” value is -0.141.

Take RRIRDRPPRLPRPRPRPQICPRP: the “shrunken log2 fold change” value was -0.0334.

In the case of RRIRRRPPRLPRPRPRPSGGPRP, the “shrunken log2 fold change” value came out at 0.318.

RRIRERPPRLPRPRPRPMWLPRP: the “shrunken log2 fold change” value is -0.07.

In the case of RRIRQRPPRLPRPRPRPAIQPRP, the “shrunken log2 fold change” value is -0.679.

Consider RRIRTRPPRLPRPRPRPDHAPRP, for which the “shrunken log2 fold change” value worked out at 0.283.

Turning to RRIRGRPPRLPRPRPRPPMAPRP, the “shrunken log2 fold change” value worked out at 0.94.

For the sequence RRIRRRPPRLPRPRPRPTYGPRP, the “shrunken log2 fold change” value amounted to 0.0875.

Turning to RRIRFRPPRLPRPRPRPVQYPRP, the “shrunken log2 fold change” value is -0.445.

Turning to RRIRGRPPRLPRPRPRPRCYPRP, the “shrunken log2 fold change” value is 0.555.

Take RRIRKRPPRLPRPRPRPKYIPRP: the “shrunken log2 fold change” value was -0.0449.

With RRIRQRPPRLPRPRPRPTCTPRP, the “shrunken log2 fold change” value was -0.0329.

As to RRIRCRPPRLPRPRPRPFPIPRP, the “shrunken log2 fold change” value was -0.305.

On to RRIRLRPPRLPRPRPRPPVHPRP, for which the “shrunken log2 fold change” value was 0.0348.

RRIRMRPPRLPRPRPRPKNFPRP: the “shrunken log2 fold change” value is -0.15.

For the sequence RRIRERPPRLPRPRPRPSYIPRP, the “shrunken log2 fold change” value is -0.216.

Take RRIRPRPPRLPRPRPRPTMEPRP: the “shrunken log2 fold change” value came out at 0.0735.

Consider RRIRMRPPRLPRPRPRPNVIPRP, for which the “shrunken log2 fold change” value is -0.117.

For the sequence RRIRSRPPRLPRPRPRPDHAPRP, the “shrunken log2 fold change” value is 0.0838.

RRIRSRPPRLPRPRPRPTNSPRP: the “shrunken log2 fold change” value is -0.24.

RRIRHRPPRLPRPRPRPWMDPRP: the “shrunken log2 fold change” value turned out to be 0.113.

As to RRIRSRPPRLPRPRPRPAPSPRP, the “shrunken log2 fold change” value turned out to be 1.24.

On to RRIRRRPPRLPRPRPRPDARPRP, for which the “shrunken log2 fold change” value amounted to 0.553.

Take RRIRMRPPRLPRPRPRPFFVPRP: the “shrunken log2 fold change” value is -0.0457.

With RRIRLRPPRLPRPRPRPEQDPRP, the “shrunken log2 fold change” value is -0.125.

Regarding RRIRCRPPRLPRPRPRPQFVPRP, the “shrunken log2 fold change” value is -0.419.

Take RRIRCRPPRLPRPRPRPKKHPRP: the “shrunken log2 fold change” value was -0.217.

For the sequence RRIRKRPPRLPRPRPRPRVKPRP, the “shrunken log2 fold change” value was -0.0843.

With RRIRHRPPRLPRPRPRPMGQPRP, the “shrunken log2 fold change” value was -0.239.

RRIRSRPPRLPRPRPRPPFVPRP: the “shrunken log2 fold change” value was 0.148.

Consider RRIRDRPPRLPRPRPRPDSMPRP, for which the “shrunken log2 fold change” value was determined as 0.00619.

Turning to RRIRCRPPRLPRPRPRPVQDPRP, the “shrunken log2 fold change” value came to 0.0523.

Turning to RRIRWRPPRLPRPRPRPQWNPRP, the “shrunken log2 fold change” value is -0.156.

Regarding RRIRSRPPRLPRPRPRPTMPPRP, the “shrunken log2 fold change” value is 0.0349.

In the case of RRIRVRPPRLPRPRPRPERGPRP, the “shrunken log2 fold change” value came to 0.416.

Turning to RRIRIRPPRLPRPRPRPQGNPRP, the “shrunken log2 fold change” value is -0.304.

For the sequence RRIRCRPPRLPRPRPRPIRRPRP, the “shrunken log2 fold change” value came to 0.119.

Regarding RRIRQRPPRLPRPRPRPQGQPRP, the “shrunken log2 fold change” value was 0.254.

As to RRIRYRPPRLPRPRPRPYANPRP, the “shrunken log2 fold change” value is -0.474.

In the case of RRIRIRPPRLPRPRPRPIAGPRP, the “shrunken log2 fold change” value is -0.017.

With RRIRWRPPRLPRPRPRPMAQPRP, the “shrunken log2 fold change” value was 0.218.

As for RRIRFRPPRLPRPRPRPDSYPRP, the “shrunken log2 fold change” value was -0.236.

For the sequence RRIRCRPPRLPRPRPRPFSKPRP, the “shrunken log2 fold change” value is -0.203.

In the case of RRIRFRPPRLPRPRPRPCSMPRP, the “shrunken log2 fold change” value was -0.343.

Turning to RRIRGRPPRLPRPRPRPAEYPRP, the “shrunken log2 fold change” value is -0.187.

With RRIRRRPPRLPRPRPRPGKLPRP, the “shrunken log2 fold change” value was determined as 0.0788.

Turning to RRIRLRPPRLPRPRPRPQQSPRP, the “shrunken log2 fold change” value was -0.047.

RRIRVRPPRLPRPRPRPYPYPRP: the “shrunken log2 fold change” value was -0.0982.

With RRIRPRPPRLPRPRPRPQVTPRP, the “shrunken log2 fold change” value was -0.0231.

As to RRIRTRPPRLPRPRPRPWEAPRP, the “shrunken log2 fold change” value came out at 0.337.

Turning to RRIRLRPPRLPRPRPRPYKEPRP, the “shrunken log2 fold change” value is -0.0365.

As to RRIRVRPPRLPRPRPRPKFQPRP, the “shrunken log2 fold change” value is -0.274.

As to RRIRDRPPRLPRPRPRPPFIPRP, the “shrunken log2 fold change” value was -0.533.

With RRIRRRPPRLPRPRPRPTWDPRP, the “shrunken log2 fold change” value is 0.19.

With RRIRRRPPRLPRPRPRPIVLPRP, the “shrunken log2 fold change” value is -0.102.

For the sequence RRIRNRPPRLPRPRPRPHHTPRP, the “shrunken log2 fold change” value was -0.459.

Regarding RRIRFRPPRLPRPRPRPYAFPRP, the “shrunken log2 fold change” value is -0.193.

Turning to RRIRRRPPRLPRPRPRPPRVPRP, the “shrunken log2 fold change” value was determined as 1.18.

Consider RRIRKRPPRLPRPRPRPGWTPRP, for which the “shrunken log2 fold change” value is 0.438.

For RRIRCRPPRLPRPRPRPIGFPRP, the “shrunken log2 fold change” value was 0.129.

Take RRIRMRPPRLPRPRPRPYRGPRP: the “shrunken log2 fold change” value came to 0.148.

Consider RRIRSRPPRLPRPRPRPFHNPRP, for which the “shrunken log2 fold change” value is -0.0339.

RRIRERPPRLPRPRPRPDWNPRP: the “shrunken log2 fold change” value is -0.631.

With RRIRGRPPRLPRPRPRPIQHPRP, the “shrunken log2 fold change” value is -0.0341.

As for RRIRNRPPRLPRPRPRPPPHPRP, the “shrunken log2 fold change” value worked out at 0.794.

For RRIRIRPPRLPRPRPRPKHQPRP, the “shrunken log2 fold change” value was -0.495.

In the case of RRIRQRPPRLPRPRPRPPAVPRP, the “shrunken log2 fold change” value was determined as 0.408.

As for RRIRSRPPRLPRPRPRPELTPRP, the “shrunken log2 fold change” value is 0.316.

Take RRIRRRPPRLPRPRPRPVFGPRP: the “shrunken log2 fold change” value was 0.329.

Consider RRIRCRPPRLPRPRPRPWQYPRP, for which the “shrunken log2 fold change” value was 0.0686.

With RRIRDRPPRLPRPRPRPGLMPRP, the “shrunken log2 fold change” value was -0.152.

In the case of RRIRWRPPRLPRPRPRPWYIPRP, the “shrunken log2 fold change” value is -0.172.

For the sequence RRIRARPPRLPRPRPRPCDEPRP, the “shrunken log2 fold change” value was found to be 0.085.

Regarding RRIRTRPPRLPRPRPRPQDNPRP, the “shrunken log2 fold change” value was -0.669.

For RRIRCRPPRLPRPRPRPIWEPRP, the “shrunken log2 fold change” value came to 0.0488.

Consider RRIRIRPPRLPRPRPRPVPEPRP, for which the “shrunken log2 fold change” value was -0.138.

RRIRCRPPRLPRPRPRPFIAPRP: the “shrunken log2 fold change” value is -0.613.

For RRIRIRPPRLPRPRPRPKMYPRP, the “shrunken log2 fold change” value was -0.25.

In the case of RRIRARPPRLPRPRPRPNGIPRP, the “shrunken log2 fold change” value was -0.109.

In the case of RRIRRRPPRLPRPRPRPPGVPRP, the “shrunken log2 fold change” value was found to be 0.704.

For RRIRTRPPRLPRPRPRPPDCPRP, the “shrunken log2 fold change” value was determined as 0.0461.

For the sequence RRIRNRPPRLPRPRPRPSESPRP, the “shrunken log2 fold change” value is -0.0302.

On to RRIRLRPPRLPRPRPRPTHEPRP, for which the “shrunken log2 fold change” value amounted to 0.361.

As to RRIRSRPPRLPRPRPRPVILPRP, the “shrunken log2 fold change” value is -0.0746.

Take RRIRGRPPRLPRPRPRPVEEPRP: the “shrunken log2 fold change” value was 0.843.

As for RRIRHRPPRLPRPRPRPIGVPRP, the “shrunken log2 fold change” value came to 0.148.

For the sequence RRIRGRPPRLPRPRPRPMRPPRP, the “shrunken log2 fold change” value worked out at 1.3.

For RRIRKRPPRLPRPRPRPCNNPRP, the “shrunken log2 fold change” value was -0.474.
